From US20170096652

Target: transcription factor DdrO (Gene ID: 1798752; NP_296294.1) of Deinococcus radiodurans

B1: PprI protease (gene pprI, dr_0167; GeneID: 1798483; NCBI-GI: 15805204) of Deinococcus radiodurans (protein)
chain: MPSANVSPPCPSGVRGGGMGPKAKAEASKPHPQIPVKLPFVTAPDALAAAKARMRDLAAAYVAALPGRDTHSLMAGVPGVDLKFMPLGWRDGAFDPEHNVILINSAARPERQRFTLAHEIGHAILLGDDDLLSDIHDAYEGERLEQVIETLCNVAAAAILMPEPVIAEMLERFGPTGRALAELAKRAEVSASSALYALTEQTPVPVIYAVCAPGKPPREQAASDEDAGPSTEKVLTVRASSSTRGVKYTLASGTPVPADHPAALALATGMEVREESYVPFRSGRKMKAEVDAYPSRGIVAVSFEFDPARLGRKDSEQADRDEPQDAAQ
PprI cleavage activity detected by Western blotting: PprI cleaves DdrO into two fragments
protease activity in vitro, SDS-PAGE (40 minutes, 2.0 mM MnCl2): DdrO was cleaved by PprI into two fragments
protease activity in vitro, SDS-PAGE (40 minutes, 3.0 mM MnCl2): DdrO was cleaved by PprI into two fragments
protease activity in vitro, SDS-PAGE (40 minutes, 5.0 mM MnCl2): DdrO was cleaved by PprI into two fragments
